Test: yeast display, Sf9 membrane polyspecificity reagent, FACS + sequencing; frameworks hold sequencing errors
Outline: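 Polyreactivity labels are assigned by the sorting gate from which each nanobody was recovered. The gates were low and high (top ~1%), set on anti-HA fluorescence for expression and streptavidin fluorescence for reagent binding. Before sorting, galactose-induced (36–48 hours) yeast display cells were stained for 1 hour at 4 °C with 10% biotinylated, detergent-solubilized Sf9 membrane reagent.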

| Sequence | polyreactivity (PSR sort gate) |
| --- | --- |
| QVQLVESGGGLVQAGGSLRLSCAASGRIFYPYAMGWYRQAPGKERELVAAIDWTAGGTYYADSVKGRFTISRDNAKNTVYLQMNSLKPEDTAVYYCAAEYYIEANGDYWGLGTQVTVSS | low polyreactivity |
| QVQLVESGGGLVQAGGSLRLSCAASGRIFYPYAMGWYRQAPGKERELVAAIRISGGSTYYADSVKGRFTISRDNAKNTVYLQMISLNPEDTAVYYCNASARLQPAYSWFYYWGQGTQVTVSS | high polyreactivity |
| QVQLVESGGGLVQAGGSLRLSCAASGRIFYPYAMGWYRQAPGKERELVAAISYSGGSTFYADSVKGRFTISRDNAKNTVYLQMNSLKPEDTAVYYCIKPGLYIYGSWGQGTQVTVSS | high polyreactivity |
| QVQLVESGGGLVQAGGSLRLSCAASGRIFYPYAMGWYRQAPGKERELVASITSGGGTYYADSVKGRFTISRDNAKNSVYLQMNSLKPEDTAVYYCAAKYYTSWIRYDYWGQGTQVTVSS | low polyreactivity |
| QVQLVESGGGLVQAGGSLRLSCAASGRIFYPYAMGWYRQPPGKERELVAAIDKGGGSTYYADSVKGRFTISRDNAKNTVYLQMNSLKPEDTAVYYCAAGWEYPYDYWGQGTQVTVSS | low polyreactivity |
| QVQLVESGGGLVQAGGSLRLSCAASGRIFYQNTMGWYRQAPGKEREFVARINWSGGSTYYADSVKGRFTISRDNAKITVYLQMNSLKPEDTAVYYWAKASQSWGRDDYYYWGQGTQVTVSS | low polyreactivity |
| QVQLVESGGGLVQAGGSLRLSCAASGRIFYQNTMGWYRQAPGKERELVASISTTGGNTYYADSVKGRFTISRDNAKNTVYLQMNSLKPEDTAVYYCNAVRSVYLYGYIYGVDYWGQGTQVTVSS | low polyreactivity |
| QVQLVESGGGLVQAGGSLRLSCAASGRIFYRNAMGGSRQAPGKERELVAAISYSGGSTYYADSVKGRFTISRDNAKNTVYLQMNSLKPEDTAVYYCAAARDRWGNYWGQGTQVTVSS | high polyreactivity |
| QVQLVESGGGLVQAGGSLRLSCAASGRIFYRNAMGWYRQAPGKERELVAAINWSGGSTYYADSVKGRFTISRDNAKNTVYLQMNSLKPEDTAVYYCATGYRQGEYDYWGQGTQVTVSS | low polyreactivity |
| QVQLVESGGGLVQAGGSLRLSCAASGRIFYRNAMGWYRQAPGKERELVAAISSGGITNYADSVKGRFTISRDNAKNTVYLQMNSLKPEDTAVYYCNADAYRLPGYTFGYWGQGTQVTVSS | high polyreactivity |
| QVQLVESGGGLVQAGGSLRLSCAASGRIFYRNAMGWYRQAPGTDRELVARITSSGGTTYYADSVKGRFTISRDNAKNTVYLQMNSLQPEDTAVYYCAARSVTQRKMYYWGQGTQVTVSS | high polyreactivity |
| QVQLVESGGGLVQAGGSLRLSCAASGRIFYRYAMGCYRQAPGKERELVAGIRSRGGRTYYADSVKGRFTISRDNAKNTVYLQMNSLKPEDTAVYYCAARYLSGTSRYYYWGQGTQVTVSS | high polyreactivity |
| QVQLVESGGGLVQAGGSLRLSCAASGRIFYRYAMGWSRQAPGKERELVASITTSGDSTYYADSVKGRFTISRDNAKNTVYLQMNSLKPEDTAVYYCAARSYRGRRYDYWGQGTQVTVSS | high polyreactivity |
| QVQLVESGGGLVQAGGSLRLSCAASGRIFYRYAMGWYRQAPGKEMELVASITRSGITHYADSVKGRFTISRDNAKNTVYLQKNSLKPEDTEVYYCNARRGSPAPYDYWGQGTQVTVSS | high polyreactivity |
| QVQLVESGGGLVQAGGSLRLSCAASGRIFYRYAMGWYRQAPGKERELVAGISNSGGSTYYADSVKGRFTISRDNAKNSVYLQRNSLKPEDTAVYYCARLSTKPLPYDYWGQGTQVTVSS | high polyreactivity |
| QVQLVESGGGLVQAGGSLRLSCAASGRIFYRYAMGWYRQAPGKERELVASIRFSDGSTYYADSVKGRFTISRDNAKNTVYLQMNSLKPEDTALYYCAARPLRSRNGYYWGQGTQVTVSS | high polyreactivity |
| QVQLVESGGGLVQAGGSLRLSCAASGRIFYRYAMGWYSQAPGKESELVAAITWRGGSTSYPDSVKGRFTISRDNAKNTVYLQMNSLKPEATAVYYCAAAAYGVPWRSYLGVFKSHMDYWGQGTQVTVSS | high polyreactivity |
| QVQLVESGGGLVQAGGSLRLSCAASGRIFYRYARGWYRQAPGKEREFVAAITSGTSTNYADSVKGRFTISRDNAKNSLYVQRNSLKPEDTAVYYCATRYYWKYAEYDYWGQGTQVTVSS | high polyreactivity |
| QVQLVESGGGLVQAGGSLRLSCAASGRIFYRYDMGWYRQAPGKERELVAAISSGGNTNYADSVKGRFTISRDNAKNTVYLQMNCLKPEDTAVYYCAKRYRSYQGSSRQGNYGYWGQGTQVSVSS | high polyreactivity |
| QVQLVESGGGLVQAGGSLRLSCAASGRIFYSNAMGWYRQAPGKERELVAAISGSTDSTYYADSVKGRFTISRDNAKNTDYLQMNSVKPEDTAVYYCAAADYWFYYGYYLTMDFWGQGTQVTVSS | low polyreactivity |
| QVQLVESGGGLVQAGGSLRLSCAASGRIFYSNAMGWYRQAPGKERELVAAITTSGASTYYADSVKGRFTISRDNAKNTVYLQMNSLKPEDTSVYYCATYAVVYPFAMDYWGQGTQVTVSS | low polyreactivity |
| QVQLVESGGGLVQAGGSLRLSCAASGRIFYSNTMGWNRQAPGKEREMVATITSGGSTNYADSVKGRFTISRDNAKNTVYFQMNILKPEDTAVYYCAADAYATHPFRSESDYWGQGTQVTVSS | low polyreactivity |

| Sequence | polyreactivity (PSR sort gate) |
| --- | --- |
| QVQLVESGGGLVQAGGSLRLSCAASGRIFYSYAMGCSRQAPGKERELVAAITRGGRTKYADSVKGRFTISRDNEKNTVYLQMNSLKPEDTAVYYCAAVKFYTEYNQYDYWGQGTQVTVSS | high polyreactivity |
| QVQLVESGGGLVQAGGSLRLSCAASGRIFYSYAMGWNRQAPGKESQLVARSTRGSSTYYADSVKGRLTISRDNAKKTFYVQMNSMKPEDTAVYYCAQSRYTALTNHWSHDYWGPGTQVTVSS | low polyreactivity |
| QVQLVESGGGLVQAGGSLRLSCAASGRIFYSYAMGWYRQAPGKDRELVAAITRTGGNTYYADSVKGRFTISRDNAKNTVYLQMNSLKPEDTAVYYCNAEYWKEHYPEIYYSWGQGTQVTVSS | low polyreactivity |
| QVQLVESGGGLVQAGGSLRLSCAASGRIFYSYAMGWYRQAPGKEREFVAVISSDGGSTYYADSVKGRFTISRDNAKNTVYLQMNSLKPEDTAVYYCNAEIDYDVYEYDYWGQGTQVTVSS | low polyreactivity |
| QVQLVESGGGLVQAGGSLRLSCAASGRIFYSYAMGWYRQAPGKERELVAAISSRTGSTYYADSVKGRFTISRDNAKNTVYLQMNSLKPEDTAVYYCAAQSGWLRYYYWGQGTLVTVSS | high polyreactivity |
| QVQLVESGGGLVQAGGSLRLSCAASGRIFYSYAMGWYRQAPGKERELVAAITRSVARTYYADSVKGRFTISRDNAKNTVYLQMNCLKPEDTAVYYCAADWYQWGGRYYAPRYYYWGQGTQVTVSS | high polyreactivity |
| QVQLVESGGGLVQAGGSLRLSCAASGRIFYTNAMGWYRKAPGKERELVAGITCSGDSTYYADSVKGRFTISRDNAKNTVYLQMNSLKPEDTPVYYCAARWRYVLMDYWGQGNQVTVSS | low polyreactivity |
| QVQLVESGGGLVQAGGSLRLSCAASGRIFYTNAMGWYRQAPGKERELVATISGSGGNTYYADSVKGRFTISRDNAKNTVYLQMNSLKPEDTAVYYCAKAYYTPYGVYVLHYYWGQGTQVTVSS | high polyreactivity |
| QVQLVESGGGLVQAGGSLRLSCAASGRIFYTNAMGWYRQAPGKESELVAVISWGGDTTYYADSVKGRFTISRDNAKYTVYLQMNSLKPDDTADYYFNADWGPTYEIYDSWGQGTQVTVSS | low polyreactivity |
| QVQLVESGGGLVQAGGSLRLSCAASGRIFYTNGMGWYRQAPGKERELVAAISYNGGRTYYADSVKGRFTISRDNAKNTVYLQMNSLKPEDTAVYYCNKRGDYQFHFDYWGQGTQVTVSA | low polyreactivity |
| QVQLVESGGGLVQAGGSLRLSCAASGRIFYTNVMGWYRQATGKERELVAAISTGGGRTYYADSVKGRITISRDNAKNSVYLQMNSLKPEDTAVYDCAASGRYAIVWGDQYYGYYYWGQGTQVTVSS | high polyreactivity |
| QVQLVESGGGLVQAGGSLRLSCAASGRIFYTYAMGWYRQAPGKERELVAAIRWSSGSTFYADSVKGRFTISRDNAKNSVYLQMNSLKPEDTAVYYCATEYYPQYQSTGWYDYWGQGTQVTVSS | low polyreactivity |
| QVQLVESGGGLVQAGGSLRLSCAASGRIFYTYAMGWYRQSPGKERELVAAISWGGGRTYYADSVKGRFTISRDNAKNTVYLQMNSLKPEDTAVYYCNAVSLKFTRKYDYWGQGTQVTVSS | high polyreactivity |
| QVQLVESGGGLVQAGGSLRLSCAASGRIFYTYVMGWYRQAPGKERELVAAITRRGGSTNYADSVKGRFTISRDNAKNTVYLQMNSLKPEDTAVYYCAAGTYKGSSVYGMDYWGQGTQVTVSS | high polyreactivity |
| QVQLVESGGGLVQAGGSLRLSCAASGRIFYVYAMGWYRAPGKERELVASISYIGGSTYYADSVKGRFTISRDNAKNTVYLQMNSLIPEDTAVYYCATDYYGYTVSFLVASWPDDYWGQGTQVTVSS | low polyreactivity |
| QVQLVESGGGLVQAGGSLRLSCAASGRIFYVYAMGWYRPAPGKERELVAAITQSGGRTYYADSVKGRFTISRDNAKNTVYLQMNSLKPEDTAVYYCNADGDDLDWNYYLVQYDYWGQGTQVTVSS | low polyreactivity |
| QVQLVESGGGLVQAGGSLRLSCAASGRIFYVYAMGWYRQAPGKERELVAAISRGGSTNYADSVKGRFTISRDNAKNTVYLQMNSLKPEDTAVYYCAASSLPHYSYRHSYLYEYWGQGTQVTVSS | low polyreactivity |
| QVQLVESGGGLVQAGGSLRLSCAASGRIFYVYTLGWYRQAPGKERELVAAITSGGSTNYADSVKGRFTISRDNAKNTVYLQMNSLKPEDTAVYFCAKKAWVIYNRKFSSGYDYWGQGTQVTVSS | low polyreactivity |
| QVQLVESGGGLVQAGGSLRLSCAASGRIFYVYTMGWYRQARGKERELVAAISWSGGSTHYADSVKGRFTISRDNAKNTVYLQMNSLKPEDTAVYYCNKGVLSRVAFEYWGQGTQVTVSS | low polyreactivity |
| QVQLVESGGGLVQAGGSLRLSCAASGRIFYWYAMGWYRKAPGKERELVAAIIWSGGSSYYADSVKGRFTISRDNAKNTVYLQMNSLKPEDTAVYYSAADRILEMGYWGQGTQVTVSS | low polyreactivity |
| QVQLVESGGGLVQAGGSLRLSCAASGRIFYWYARGWYRQAPGKERELVASISRRAGSTYYADSVKGRFTISRDNAKNTVYLQMHSLKPEDTAVYYCAAVGRFDRVFDYDYWGQGTQVTVSS | high polyreactivity |

Reference: the nanobody polyreactivity screen of Harvey et al. (2022)
